# B1: HIS-RhoU (natural protein)
# chain: not shown
# Target: T1, Rab40A (on the HuProt array) (human, UniProt Q8WXH6 1-277)
# T1 sequence: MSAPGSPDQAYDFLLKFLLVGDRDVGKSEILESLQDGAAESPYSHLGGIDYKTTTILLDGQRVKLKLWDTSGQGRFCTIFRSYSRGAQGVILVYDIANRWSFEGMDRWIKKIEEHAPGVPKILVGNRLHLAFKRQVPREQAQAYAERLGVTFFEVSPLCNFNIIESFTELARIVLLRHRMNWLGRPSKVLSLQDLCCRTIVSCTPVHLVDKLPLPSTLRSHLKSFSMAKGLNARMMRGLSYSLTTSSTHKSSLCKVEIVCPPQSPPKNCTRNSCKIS
# Assay: peptide or protein array
binder,measurement,value
B1,binding result,binds
